Results published in patent publication US20170121382A1 (NORTHWESTERN UNIVERSITY, published 2017).

Molecular target: T1, PHEX (phosphate-regulating gene with homology to endopeptidase on the X chromosome), endogenous mouse protein (mouse, UniProt P70669 1-749)
T1 construct: Endogenous PHEX of mouse bone extracts (coIP); The same id stands for the endogenous PHEX of mouse MC3T3-E1 cells and of mice in the functional rows; also called bone metallo-endopeptidase PHEX
T1 sequence (looked up): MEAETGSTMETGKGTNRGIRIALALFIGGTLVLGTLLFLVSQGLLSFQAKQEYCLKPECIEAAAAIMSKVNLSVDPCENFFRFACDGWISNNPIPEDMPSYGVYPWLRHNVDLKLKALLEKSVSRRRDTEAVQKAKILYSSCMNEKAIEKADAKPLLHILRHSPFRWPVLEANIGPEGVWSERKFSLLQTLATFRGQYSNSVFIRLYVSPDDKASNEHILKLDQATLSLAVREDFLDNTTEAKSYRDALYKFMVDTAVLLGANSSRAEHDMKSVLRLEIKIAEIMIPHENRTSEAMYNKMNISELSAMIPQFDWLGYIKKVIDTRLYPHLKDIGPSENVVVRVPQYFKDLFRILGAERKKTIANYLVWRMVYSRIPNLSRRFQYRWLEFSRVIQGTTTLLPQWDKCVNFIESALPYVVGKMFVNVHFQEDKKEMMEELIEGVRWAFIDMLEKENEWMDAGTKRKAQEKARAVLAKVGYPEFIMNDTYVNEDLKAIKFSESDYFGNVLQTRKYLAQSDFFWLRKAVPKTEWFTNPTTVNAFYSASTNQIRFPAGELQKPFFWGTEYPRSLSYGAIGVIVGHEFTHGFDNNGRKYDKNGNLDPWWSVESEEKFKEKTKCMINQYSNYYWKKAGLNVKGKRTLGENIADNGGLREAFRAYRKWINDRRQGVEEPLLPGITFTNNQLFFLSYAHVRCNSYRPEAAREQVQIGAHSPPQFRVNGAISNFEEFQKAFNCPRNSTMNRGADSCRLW
Assay: coIP, anti-PHEX antibody-coated beads, mouse bone extracts, Western blot for DMP1
Method: FIGS. 4A-C. (FIG. 4A) PHEX binds to full length DMP1 and cDMP1. Bone protein extracts from WT and DMP1ko/cDMP1Tg were incubated with anti-PHEX antibody-coated beads. […] Negative control ((−) CTR) was obtained from uncoated beads to evaluate non-specific binding. […] The constant of dissociation (KD) between PHEX and the entire DMP1 protein reflecting binding affinity is as strong as the KD obtained previously between rPHEX and the small 19 amino acid MEPE-ASARM peptide. Data are normalized by non-specific binding at baseline and expressed as relative units (RU) of response difference. (FIG. 4C) Dose-dependent binding of rPHEX to rDMP1, represented by quantitation of the SPR sensorgram, confirms binding specificity.
Both PHEX and DMP1 are expressed by osteocytes. The ASARM sequence binds to PHEX. Co-immunoprecipitation (coIP) of PHEX and DMP1 were performed in endogenous bone protein extracts to test the presence of binding between PHEX and cDMP1. Magnetic beads were covalently coated with a PHEX antibody (Ab) and incubated with protein extracts isolated from WT or DMP1ko/cDMP1Tg mice. Detection of DMP1 in the protein pull-downs eluted from the beads was performed by Western Blot analysis using an Ab targeting the C-terminus region (FIG. 4A). […] In the DMP1ko/cDMP1Tg extracts in which full-length DMP1 is not expressed, only cDMP1 fragments were detected. […]

binding result: binds
B1: full-length DMP1 (dentin matrix protein 1), endogenous mouse protein, ~100 kDa (other, UniProt O55188 17-503, looked up)
chain: LPVARYHNTESESSEERTGDLAGSPPPPTNSESSEESQASPEGQANSDHTDSSESGEELGYDRGQYRPAGGLSKSTGTGADKEDDEDDSGDDTFGDEDNDLGPEEGQWGGPSKLDSDEDSTDTTQSSEDSTSQENSAQDTPSDSKDHDSEDEADSRPEAGDSTQDSESEEQRVGGGSEGESSHGDGSEFDDEGMQSDDPESTRSDRGHARMSSAGIRSEESKGDHEPTSTQDSDDSQSVEFSSRKSFRRSHVSEEDYRGELTDSNSRETQSDSTEDTASKEESRSESQEDTAESQSQEDSPEGQDPSSESSEEAGEPSQESSSESQEGVTSESRGDNPDNTSQAGDQEDSESSEEDSLNTFSSSESQSTEEQADSESNESLSLSEESQESAQDGDSSSQEGLQSQSASTESRSQESQSEQDSRSEEDSDSQDSSRSKEESNSTGSASSSEEDIRPKNMEADSRKLIVDAYHNKPIGDQDDNDCQDGY
